{"source": "paper PMC8955265", "about": "(2022)", "key": {"[1]": {"target": "T1, Skp1-FBXW7 complex (human, UniProt P63208 1-149; Q969H0 263-707)", "T1 sequence (P63208 1-149, chain 1 of 2)": "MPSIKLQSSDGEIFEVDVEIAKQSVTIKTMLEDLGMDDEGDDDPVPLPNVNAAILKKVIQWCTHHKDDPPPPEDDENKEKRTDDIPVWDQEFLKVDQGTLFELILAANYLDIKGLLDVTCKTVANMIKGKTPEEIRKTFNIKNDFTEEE", "T1 sequence (Q969H0 263-707, chain 2 of 2)": "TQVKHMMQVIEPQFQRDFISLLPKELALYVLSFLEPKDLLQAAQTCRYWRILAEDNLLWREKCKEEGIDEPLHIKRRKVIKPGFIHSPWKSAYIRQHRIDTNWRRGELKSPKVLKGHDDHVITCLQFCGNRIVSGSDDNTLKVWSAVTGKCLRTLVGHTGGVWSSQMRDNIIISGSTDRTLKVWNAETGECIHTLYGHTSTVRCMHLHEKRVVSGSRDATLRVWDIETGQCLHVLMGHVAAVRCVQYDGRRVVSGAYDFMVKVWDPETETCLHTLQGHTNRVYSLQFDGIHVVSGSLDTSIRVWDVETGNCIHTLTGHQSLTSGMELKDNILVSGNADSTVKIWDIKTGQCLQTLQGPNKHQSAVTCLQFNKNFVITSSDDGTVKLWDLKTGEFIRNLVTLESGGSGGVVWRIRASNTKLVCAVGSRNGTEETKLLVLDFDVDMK", "assay": "FP; direct titration"}, "[2]": {"target": "T1, Skp1-FBXW7 complex", "assay": "FP; competition, unlabeled peptide"}}, "note": "Where no end group is shown, it is not given here. [ ]: non-standard residue; d: D form. pT = C[C@@H](OP(=O)(O)O)[C@H](N)C(=O)O; pS = N[C@@H](COP(=O)(O)O)C(=O)O; CF = carboxyfluorescein"}
{"binder": "{CF}-PSGLL[pT]PPQ[pS]GKKQ", "note": "[carboxyfluorescein (CF) labeled CCNE peptide (CF-PSGLLpTPPQpSGKKQ)]", "values": [{"measurement": "Kd", "setting": "[1]", "value": 2.8, "unit": "nM"}]}
{"binder": "PSGLL[pT]PPQ[pS]GKKQ (also: N-terminal carboxyfluorescein on the labelled probe form)", "note": "[CCNE]", "values": [{"measurement": "Kd", "setting": "[2]", "value": 15.9, "unit": "nM"}]}
